Test results from PMC9524272 (Frontiers in Immunology, 2022).

Key:
[1] = biological target: SARS-CoV-2 Spike RBD Omicron BA.4&BA.5 (SARS-CoV-2 Omicron BA.4/BA.5, strain)
[2] = biological target: SARS-CoV-2 spike receptor binding domain, Omicron BA.1 (IPBCAMS-OM01/2021) (SARS-CoV-2 Omicron BA.1, isolate …, strain)
[3] = biological target: SARS-CoV-2 spike receptor binding domain, Wuhan-Hu-1 (WT) (SARS-CoV-2 Wuhan-Hu-1, UniProt P0DTC2)
[4] = biological target: SARS-CoV-2 spike receptor binding domain, Beta B.1.351 (SARS-CoV-2 Beta B.1.351 (on Wuhan-Hu-1 …, strain))
[5] = biological target: SARS-CoV-2 spike receptor binding domain, Delta B.1.617.2 (SARS-CoV-2 Delta B.1.617.2 (on …, strain))

B1: H7 (VHH)
VHH: QVQLVESGGGLVQPGGSLRLSCAASGYSYRSTYYLGWFRQAPGQGLEAVAAIYGAGSTYYADSVKGRFTISRDNSKNTLYLQMNSLRAEDTAVYYCAAGDESTRGYGYSWDYWGQGTLVTVSS
**Q.** Which results are given for B1?
**A.** binding result [1]: binds; binding result [2]: binds; Kd [3]: 4.4 nM; Kd [4]: 3.7 nM; Kd [5]: 7.2 nM
